According to article PMC3022821, “Glycogen synthase kinase-3β inactivation inhibits tumor necrosis factor-α production in microglia by modulating nuclear factor κB and MLK3/JNK signaling cascades” (Journal of Neuroinflammation, 2010):

Molecular target: the molecule itself
Test: immunoprecipitation and non-reducing SDS-PAGE; BV-2 lysates, IP with goat anti-MLK3; precipitates separated by SDS-PAGE without DTT; blot with rabbit anti-MLK3; disulfide-linked dimer; cells with or without LPS (100 ng/ml)

B1: Mixed lineage kinase 3 (MLK3) (natural protein, mouse (endogenous in BV-2), UniProt Q80XI6 1-850, looked up)
chain: MEPLKNLFLKSPLGSWNGSGSGGGGGTGGVRPEGSPKATAAYANPVWTALFDYEPNGQDELALRKGDRVEVLSRDAAISGDEGWWAGQVGGQVGIFPSNYVSRGGGPPPCEVASFQELRLEEVIGIGGFGKVYRGSWRGELVAVKAARQDPDEDISVTAESVRQEARLFAMLAHPNIIALKAVCLEEPNLCLVMEYAAGGPLSRALAGRRVPPHVLVNWAVQIARGMHYLHCEALVPVIHRDLKSNNILLLQPIEGDDMEHKTLKITDFGLAREWHKTTQMSAAGTYAWMAPEVIKASTFSKGSDVWSFGVLLWELLTGEVPYRGIDCLAVAYGVAVNKLTLPIPSTCPEPFAQLMADCWAQDPHRRPDFASILQQLEALEAQVLREMPRDSFHSMQEGWKREIQGLFDELRAKEKELLSREEELTRAAREQRSQAEQLRRREHLLAQWELEVFERELTLLLQQVDRERPHVRRRRGTFKRSKLRARDGGERISMPLDFKHRITVQASPGLDRRRNVFEVGAGDSPTFPRFRAIQLEPTESGQTWGRQSPRRLEDSSNGERRACWAWGPSSPKPGEAQNGRRRSRMDEATWYLDSDDSSPLGSPSTPPALNGNPPRPSPEPEEPRRAGPTERGNSSGTPKLIQRALLRGTALLASLGLGRDLQPPGGLSRERGESPTAPPPAQMPSPCPPELPSTPLIRLSQTTPDAHSSPTPGPLLLDLGVPSGQPSAKSPRREETRGRTVSPPPGISRSAPGTPGTPRSPPLGLISRPRPSPLRSRIDPWSFVSAGPRPSPLPSPQPAPRRAPWTLFPDSDPFWDSPPANPFRGGSQDCRTQTKDMGAQAPWAPEAGP
notes: Mixed lineage kinase 3 (MLK3), endogenous in murine BV-2 microglial cells; monomer of 105 kDa on SDS-PAGE; Precipitated with a goat anti-MLK3 antibody (Santa Cruz Biotechnology); the dimer is disulfide-linked and is seen only without DTT; source: endogenous, BV-2 cell lysate
With B1 the “stoichiometry N” value was 2.
